Assay results from patent US20240254227A1.
Numbering of substitutions follows the chain as printed.

B1: anti-CD300LB antibody CD-10 (antibody, V domains shown)
VH: QVQLQQSGPELVRPGVSVKISCKGSGYTFTDYAMHWVKQSHVRSREWIGVIGTYNGHTNYNQKFKGKATMTVDKSSSTAYLELARLTSEDSAIYYCARSGSYYYSMDYWGQGTSVTVSS
VL: QIVLTQSPAIMSASPGEKVTMTCSASSSVNYMHWYQQKSGTSPKRWIYDTSKLSSGVPARFSGSGSGTSYSLTISTMEAEDAATYYCQQWSSNPPMTFGGGTKLEIK
B2: anti-CD300LB antibody CD-11 (antibody, V domains shown)
VH: QIQLVQSGPEVKKPGETVKISCKASGYTLTDYSMHWVMQTPGTGLKWMAWMNTETGEPTYADDFKGRFAFSLETSAGTAYLQIDNLKNEDTATYFCATYGKSYGMKYWGQGTSVTVSS
VL: DIVLTQSPPSLAVSLGQRATISCRATKSVSPYLHWYQQTPGQPPKLLIYLASNLDSGVPARFSGSGSGTDFTLNIHPVEEEDAATYYCQHNKELPPTFGGGTRLEIK
B3: anti-CD300LB antibody CD-05 (antibody, V domains shown)
VH: QVQLVQSGAEVKKPGASVKVSCKASGYTFSRYYINWVRQAPGQGLEWMGWINPNSGGTNYAQKFQGRVTMTRDTSTSTVYMELSSLRSEDTAVYYCTTDQLRFGKTGPYYGMDVWGQGTTVTVSS
VL: DIQMTQSPSSLSASVGDRVTITCRASQNIGTYLNWYQQKPGKAPKLLIYAASSLQSGVPSRFSGSGSGTDFTLTISSLQPEDFATYYCQQSYSDTLTFGGGTKVEIK
B4: anti-CD300LB antibody CD-01 (antibody, V domains shown)
VH: RVQLQQSGAELVRPGASVTLSCKASGFTFTDFEMHWVKKTPVHGLEWIGAIDPESGNTAYNQKFRGKATLTADKSSSTAYMELRYLTSEDSAVYYCTPLISGADYWGQGTTLTVSS
VL: DVVMTQSPLSLPVSLGDQASISCRSSQSLVHSDGNTYLYWYLQKPGQSPKLLIYKVSNRFSGVPDRFSGSGSGTDFTFKISRVGAEDLGVYFCSQSTHVPWTFGGGTKLEII
B5: anti-CD300LB antibody CD-04 (antibody, V domains shown)
VH: QVQLQQSGAELVRPGASVTLSCRASGYTFTDFEMHWVKQTPLHGLEWIGAIAPETGGTAYNQKFKGKAILTADKSSSTAYVELRSLTSEDSAVYFCTRLGGMDYWGQGTSVTVSS
VL: B4 VL with S7T, S28T, S32N, D33N, K55Q, S61F, F78L, G84E, V90L, I112K
B6: anti-CD300LB antibody CD-06 (antibody, V domains shown)
VH: QVQLVQSGAEVKKPGASVKVSCKASGYTFTTYAVHWVRQAPGQGLEWMGIVNPNSGGTNYAQKFQGRVTMTRDTSTSTVYMELSSLRSEDTAVYYCARDIVPMNNFYNYYYGMDVWGQGTTVTVSS
VL: B3 VL with N28S, G30S, T31S, A51T, S53T, S93R, D94I, T95P, L96Y, G100Q
B7: anti-CD300LB antibody CD-07 (antibody, V domains shown)
VH: QVQLVQSGAEVKKPGASVKVSCKASGYTFTNYRMHWVRQAPGQGLEWMGWINPNSGGTIYAQKFQGRVTMTRDTSTSTVYMELSSLRSEDTAVYYCARDLDYWGQGTLVTVSS
VL: B3 VL with R24Q, N28D, G30S, T31N, A50G, D94T, T95P, L96W, G100P
B8: anti-CD300LB antibody CD-08 (antibody, V domains shown)
VH: EVQLLESGGGLVQPGGSLRLSCAASGFTFSNAWMSWVRQAPGKGLEWVSVISGSGGRTYYADSVKGRFTISRDNSKNTLYLQMNSLRAEDTAVYYCARDGTTVAPKGMDVWGQGTTVTVSS
VL: DIQMTQSPSSLSASVGDRVTITCQASQDINNYVNWYQQKPGKAPKLLIYAASNLQSGVPSRFSGSGSGTDFTLTISSLQPEDFATYYCQQSYSPPYTFGQGTKLEIK
B9: anti-CD300LB antibody CD-09 (antibody, V domains shown)
VH: B6 VH with V51I
VL: B8 VL with Q24R, D28S, N30S, N31S, V33L, A51T, N53T, S93R, P94I, L104V
B10: anti-CD300LB antibody CD-15 (antibody, V domains shown)
VH: QIQLVQSGPELKKPGETVKISCQVSGYTFTDYSMHWLKQAPGKGLKWMAWINTETGESTYTDEFKGRFVFSLETSVRTAYLKINNLKNEDTATYFCGTYGSSYGMAYWGQGTSVTVSS
VL: DIVLTQSPASLPVSLGQRATISCRASKSVSTSGSSYLHWYQQKPGQPPKLLIYLASKLESGVPARFRGSGSGTDFTLNIHPVEEEDAATYYCQHNREVPPTFGGGTKLEIK
B11: anti-CD300LB antibody CD-16 (antibody, V domains shown)
VH: QIQLVQSGPELKKPGETVKISCKASGYTFTDYSMHWVKQAPGKGLKWMAWINTETGEPTYADDFRGRFAFSLETSGRTAYLEINNLRNEDTATYFCVTYGSSYGMAYWGQGTSVTVSS
VL: B10 VL with P12A, T31R, S34Y, R67S, E84A, V98I

Biological target: murine CD300C-Fc (mouse)
Sequence (chain, as listed by the source limits assumed): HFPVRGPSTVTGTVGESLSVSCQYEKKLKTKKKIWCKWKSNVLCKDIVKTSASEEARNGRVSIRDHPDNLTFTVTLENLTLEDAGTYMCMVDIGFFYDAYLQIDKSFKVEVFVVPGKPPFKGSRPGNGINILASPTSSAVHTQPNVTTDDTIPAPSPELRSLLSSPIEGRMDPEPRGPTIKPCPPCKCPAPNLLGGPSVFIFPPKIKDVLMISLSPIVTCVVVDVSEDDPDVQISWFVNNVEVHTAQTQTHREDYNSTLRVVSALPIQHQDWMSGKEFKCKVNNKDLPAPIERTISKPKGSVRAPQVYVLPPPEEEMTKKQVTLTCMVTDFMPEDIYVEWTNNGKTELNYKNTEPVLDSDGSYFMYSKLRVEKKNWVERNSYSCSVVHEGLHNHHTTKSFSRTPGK
Assay: SPR (Carterra LSA), antibody immobilised, Fc fusion at 300 or 600 nM

Binder	SPR binding (control subtracted)
B1	11.8
B2	37.8

Biological target: murine CD300LB-Fc (mouse)
Sequence (chain, as listed by the source limits assumed): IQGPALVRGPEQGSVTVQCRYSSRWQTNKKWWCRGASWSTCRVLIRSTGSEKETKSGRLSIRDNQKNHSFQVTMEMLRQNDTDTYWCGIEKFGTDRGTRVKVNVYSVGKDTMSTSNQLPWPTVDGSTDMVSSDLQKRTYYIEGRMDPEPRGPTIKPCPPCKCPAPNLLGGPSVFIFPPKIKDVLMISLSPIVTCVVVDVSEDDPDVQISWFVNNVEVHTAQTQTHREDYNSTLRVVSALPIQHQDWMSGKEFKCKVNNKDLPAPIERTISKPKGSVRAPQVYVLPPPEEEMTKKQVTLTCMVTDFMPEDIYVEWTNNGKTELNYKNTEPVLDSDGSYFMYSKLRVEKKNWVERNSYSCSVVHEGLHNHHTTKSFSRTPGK
Assay: as above

Binder	SPR binding (control subtracted)
B3	3.65

Biological target: cynomolgus monkey CD300LB transiently expressed on HEK293 cells (cynomolgus monkey)
Sequence (chain, as listed by the source limits assumed, form in doubt): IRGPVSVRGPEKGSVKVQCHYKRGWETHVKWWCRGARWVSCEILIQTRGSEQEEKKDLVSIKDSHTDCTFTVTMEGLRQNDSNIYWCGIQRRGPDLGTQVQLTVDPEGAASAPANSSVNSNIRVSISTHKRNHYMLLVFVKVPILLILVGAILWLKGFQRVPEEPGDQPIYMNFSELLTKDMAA
Assay: flow cytometry, transfected HEK293, 10 ug/mL, isotype subtracted

Binder	gMFI
B4	190 gMFI
B5	72.2 gMFI
B3	-62.5 gMFI
B6	-51 gMFI
B7	39 gMFI
B8	-43.5 gMFI
B9	-19.5 gMFI

Biological target: CD300A/C/D/E/G (pool of five stable Freestyle HEK cell lines expressing huCD300A, huCD300C, huCD300D, huCD300E and huCD300G)
Assay: flow cytometry, pooled stable Freestyle HEK cells

Binder	gMFI
B4	-21.5 gMFI
B5	52.5 gMFI
B3	2510 gMFI
B6	779 gMFI
B7	42.5 gMFI
B8	166 gMFI
B9	-25.5 gMFI

Biological target: recombinant human CD300LB overexpressed on Jurkat cells (human) (UniProt A8K4G0)
Sequence (A8K4G0 18-201 limits assumed): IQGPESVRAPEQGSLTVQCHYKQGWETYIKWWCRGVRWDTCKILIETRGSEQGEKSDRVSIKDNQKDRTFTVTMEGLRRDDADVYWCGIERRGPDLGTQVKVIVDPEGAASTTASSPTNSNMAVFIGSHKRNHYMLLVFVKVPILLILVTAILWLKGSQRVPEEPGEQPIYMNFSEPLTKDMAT
Assay: flow cytometry, stable Jurkat cells, supernatant or 10 ug/mL, isotype subtracted

Binder	gMFI
B10	22 gMFI
B11	31 gMFI

Biological target: huCD300F constitutively expressed on 293 Freestyle (Freestyle HEK) cells (human) (UniProt Q8TDQ1)
Sequence (Q8TDQ1 other isoform, or with tags, fused parts or gaps): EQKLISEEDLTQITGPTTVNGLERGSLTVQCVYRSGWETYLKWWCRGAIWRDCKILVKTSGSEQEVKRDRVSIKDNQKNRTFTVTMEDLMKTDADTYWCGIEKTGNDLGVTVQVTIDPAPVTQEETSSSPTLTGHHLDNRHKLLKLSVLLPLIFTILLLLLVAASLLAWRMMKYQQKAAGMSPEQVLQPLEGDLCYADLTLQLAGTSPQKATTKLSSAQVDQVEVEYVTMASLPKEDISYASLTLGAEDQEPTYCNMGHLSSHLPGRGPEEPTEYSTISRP
Assay: flow cytometry, stable Freestyle HEK cells

Binder	gMFI
B5	163 gMFI
